{
  "source": "patent US20090202993",
  "target": "T1, Phi29 DNA polymerase (Bacillus phage phi29) (UniProt P03680)",
  "T1 sequence": "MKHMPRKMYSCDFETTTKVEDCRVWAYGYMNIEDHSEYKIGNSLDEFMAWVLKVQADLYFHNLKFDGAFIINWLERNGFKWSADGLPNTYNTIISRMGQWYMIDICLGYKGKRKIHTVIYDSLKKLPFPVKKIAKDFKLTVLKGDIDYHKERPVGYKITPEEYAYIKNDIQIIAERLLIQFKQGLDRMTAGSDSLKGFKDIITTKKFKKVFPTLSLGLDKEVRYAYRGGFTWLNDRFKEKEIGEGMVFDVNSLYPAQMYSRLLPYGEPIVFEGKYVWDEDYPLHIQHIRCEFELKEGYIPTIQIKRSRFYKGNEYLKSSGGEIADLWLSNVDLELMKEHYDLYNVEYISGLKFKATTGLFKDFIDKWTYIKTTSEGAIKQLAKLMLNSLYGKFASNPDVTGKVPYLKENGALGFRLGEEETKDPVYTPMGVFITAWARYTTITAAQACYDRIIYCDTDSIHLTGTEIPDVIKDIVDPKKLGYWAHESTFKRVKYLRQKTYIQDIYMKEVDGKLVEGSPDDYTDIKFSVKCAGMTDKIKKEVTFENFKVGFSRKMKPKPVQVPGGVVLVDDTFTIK",
  "experiment": "cleavage_in_vitro",
  "conditions": "Tango buffer, 37 C, 3 h; Mg2+, Mn2+ or Co2+ required; scale: % increase in acid-soluble product vs no enzyme",
  "data": [
    {"substance": "[3H]poly(A) RNA", "values": [
      {"measurement": "activity", "result": 30}
    ]}
  ]
}
